Experimental data published in paper PMC12802350, “Opposite effects of spermidine and GC7 in cell culture are dictated by distinct molecular targets” (Biochemical Journal, 2025).

Substrate: NCCCCNCCCN
Experiment: DCHBS/AAP peroxide-coupled kinetic assay; Km from Michaelis–Menten/inhibition fit
Format: biochemical, Bos taurus
Settings: TPQ (trihydroxyphenylalanine quinone), copper

B1: bovine serum amine oxidase (BSAO) (Bos taurus) (protein)
chain: REEGGVGSEEGVGKQCHPSLPPRCPSRSPSDQPWTHPDQSQLFADLSREELTTVMSFLTQQLGPDLVDAAQARPSDNCVFSVELQLPPKAAALAHLDRGSPPPAREALAIVFFGGQPQPNVTELVVGPLPQPSYMRDVTVERHGGPLPYYRRPVLLREYLDIDQMIFNRELPQAAGVLHHCCSYKQGGQKLLTMNSAPRGVQSGDRSTWFGIYYNITKGGPYLHPVGLELLVDHKALDPADWTVQKVFFQGRYYENLAQLEEQFEAGQVNVVVIPDDGTGGFWSLKSQVPPGPTPPLQFHPQGPRFSVQGNRVASSLWTFSFGLGAFSGPRVFDVRFQGERLAYEISLQEAGAVYGGNTPAAMLTRYMDSGFGMGYFATPLIRGVDCPYLATYMDWHFVVESQTPKTLHDAFCVFEQNKGLPLRRHHSDFLSHYFGGVAQTVLVFRSVSTMLNYDYVWDMVFYPNGAIEVKLHATGYISSAFLFGAARRYGNQVGEHTLGPVHTHSAHYKVDLDVGGLENWVWAEDMAFVPTAIPWSPEHQIQRLQVTRKQLETEEQAAFPLGGASPRYLYLASKQSNKWGHPRGYRIQTVSFAGGPMPQNSPMERAFSWGRYQLAITQRKETEPSSSSVFNQNDPWTPTVDFSDFINNETIAGKDLVAWVTAGFLHIPHAEDIPNTVTVGNGVGFFLRPYNFFDQEPSMDSADSIYFREGQDAGSCEINPLACLPQAATCAPDLPVFSHGGYPEY
notes: BSAO purified from bovine blood
For B1, which Km is on record?
Its Km is 173.8 µM.
